From patent publication US7193044B1, “Compounds and methods for regulating apoptosis, and methods of making and screening for compounds that regulate apoptosis” (Immunogen, Inc., priority 2000, dated 2007)

How the values were obtained:
[1] = biological target: T1, PKA (catalytic subunit from bovine heart) (Bos taurus, UniProt P00517); experiment: In vitro kinase assay, phosphorylation of BAD and BAD mutants by PKA; type: biochemical; conditions: 35S-labeled in vitro translated protein
T1 construct: 11 units PKA (catalytic subunit from bovine heart, Calbiochem); purchased Calbiochem; host or cells: bovine heart
Experimental: The ability of full-length BAD and mutant BAD S155A to bind Bcl-XL was also determined (FIG. 3(c)). Full-length BAD (“WT”) and mutant BAD S155A (“S155A”) were produced by in vitro translation and labeled with ^35S-methionine therein. The labeled proteins were then incubated with PKA (“+”) in the presence of unlabeled ATP or a buffer control (“−”). Following the kinase reactions, aliquots of each sample of the four samples were incubated with either GST or GST-Bcl-XL. The protein complex were captured on glutathione-agarose beads. Proteins bound to the beads (“Bound”) (lower panel) and samples of the reactions collected prior to incubation with the beads (“Total”) (upper panel) were analyzed by SDS-PAGE followed by autoradiography.
The GST-tagged BAD and BAD mutants were then expressed individually in cells and the purified GST-tagged polypeptides incubated with purified PKA, in the presence of ^32P radiolabel. A western blot, probed with anti-BAD antibody, was performed on the incubated GST-tagged BAD and BAD mutants to determine whether PKA could phosphorylate the BAD and/or mutant BAD in vitro. The GST-tagged BAD and BAD mutants phosphorylated by PKA could be detected directly by autoradiography due to the incorporation of ^32P radiolabel when the polypeptides were phosphorylated (FIG. 4, upper panel), whereas the total amount of BAD and mutant BAD present in the in vitro reaction was detected by the anti-BAD antibody probe (FIG. 4, lower panel).
In vitro kinase assays were carried out in 30 μl volumes containing 10 mM HEPES buffer, pH 7.5, 100 mM NaCl, 12 mM MgCl2, 1 mM dithiothreitol, […] γ^32P-ATP ([…], NEN), 11 units PKA (catalytic subunit from bovine heart, Calbiochem), and 1 μg purified GST-BAD. Reactions were incubated for 30 min at 30° C. and terminated by the addition of SDS-PAGE sample buffer. Samples were run on a 4–20% SDS-PAGE gel (Novex), transferred to a nitrocellulose membrane and phosphorylated GST-BAD was visualized by autoradiography. To verify that equal amounts of GST-BAD substrates were used, the nitrocellulose was subjected to western blot analysis with 133 ng/ml anti-BAD antibody (C-20).

GST-Bcl-XL = GST-Bcl-XL (Homo sapiens, UniProt Q07817); experiment: GST-Bcl-XL binding (glutathione bead pull-down) of BAD; conditions: 35S-labeled in vitro translated full-length protein incubated with PKA and ATP
Chain of GST-Bcl-XL (Q07817 whole entry): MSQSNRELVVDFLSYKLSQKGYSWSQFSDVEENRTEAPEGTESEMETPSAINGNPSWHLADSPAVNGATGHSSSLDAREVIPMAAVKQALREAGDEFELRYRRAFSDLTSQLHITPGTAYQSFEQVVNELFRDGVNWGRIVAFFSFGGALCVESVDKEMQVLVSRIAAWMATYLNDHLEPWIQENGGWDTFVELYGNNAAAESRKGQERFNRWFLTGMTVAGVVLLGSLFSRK
Experimental: In order to test whether the additional and novel phosphorylation site on BAD has functional significance, the effect on BAD binding to Bcl-XL was examined. Recombinant Bcl-XL tagged with the glutathione S-transferase (“GST”) moiety (“GST-Bcl-XL”) was incubated with WCL prepared from COS-7 cells expressing the double mutant HA-BAD S112A/S136A, and the HA-BAD S112A/S136A that bound to the GST-Bcl-XL was precipitated with GST beads. […] No HA-BAD S112A/S136A was precipitated with GST beads from the WCL that were not incubated with GST-Bcl-XL (FIG. 1, lane 4).
The ability of full-length BAD and mutant BAD S155A to bind Bcl-XL was also determined (FIG. 3(c)). Full-length BAD (“WT”) and mutant BAD S155A (“S155A”) were produced by in vitro translation and labeled with ^35S-methionine therein. […] Proteins bound to the beads (“Bound”) (lower panel) and samples of the reactions collected prior to incubation with the beads (“Total”) (upper panel) were analyzed by SDS-PAGE followed by autoradiography.
For Bcl-XL binding studies, GST-Bcl-XL (1 mg/ml final concentration) was added to cell lysates derived from BAD expressing cells, and incubated with rotation for two hours at 4° C. […] The beads were then washed with RIPA buffer, the proteins were separated by SDS-PAGE and associated BAD detected by probing the blot with anti-HA antibody.

[2] = test system: BAD Ser155 phosphorylation in HeLa cells; experiment: BAD phosphorylation in HeLa cells (western blot band-shift / anti-phospho-Ser155 antibody); type: cell-based, human; conditions: HeLa cells
Experimental: A mammalian expression vector encoding mutant HA-BAD S155A, derived from the shorter murine BAD of SEQ ID NO:3, was constructed. HA-BAD S155A has an amino acid sequence wherein the serine at a position corresponding to Ser155 is substituted with alanine. A western blot was performed on WCL prepared from cells expressing the shorter murine BAD (SEQ ID NO:3), HA-BAD S112A, HA-BAD S136A, or HA-BAD S155A, and probed with anti-HA antibody.
A western blot analysis, probed with anti-HA antibody, was performed on lysates produced from the Forskolin treated and untreated (control) cells to determine whether Forskolin could induce the phosphorylation BAD or mutant BAD.
HeLa cells transiently expressing HA-BAD, HA-BAD S155A, HA-BAD S112A/S136A, or HA-BAD S112A/S136A/S155A were treated with Forskolin or a buffer control.
The HA-BAD S112A/S136A double mutant was transiently expressed in HeLa cells, and transfected cell cultures were treated with each of the GPCR ligands, individually and as a group. A western blot analysis, probed with anti-HA antibody, was performed on lysates produced from the treated and untreated (negative control) cells. […] Forskolin (FK) and no treatment (−) were positive and negative controls, respectively (FIG. 6(a), […], respectively).
Non-transfected HeLa cells were treated with Forskolin or L-epinephrine, followed by western blot analysis of cell lysates using anti-BAD antibodies.
Transformants were treated with L-epinephrine, then lysed and subjected to anti-HA western blot analysis.
To further test whether phosphorylation of Ser155 is dependent on the PI 3-kinase/Akt pathway, HeLa cells were transfected with the mutant HA-BAD S155A and pretreated with Wortmannin, an inhibitor of PI 3-kinase. These cells were then stimulated with epidermal growth factor (EGF), lysed and analyzed by western blot analysis.
For immunoprecipitation of all HA-BAD species, 1 μg of the anti-HA antibody was added to the cell lysates, and incubated at 4° C. for one hour. Protein G agarose (Pierce) was then added (50 μl/fraction of 50% slurry) and followed by a one hour incubation at 4° C. Beads were washed with RIPA buffer, boiled in loading buffer (2% SDS, 10% glycerol, 5% β-ME, 60 mM Tris, pH 6.8, 0.002% Bromophenol Blue) and loaded onto polyacrylamide gels. After electrophoresis, proteins were transferred to nitrocellulose membranes, and blots blocked in western wash buffer (40 mM Tris, pH 8.0, 150 mM NaCl, 0.2% NP-40) with 5% BSA for one hour at room temperature. Blots were incubated with primary antibody diluted in western wash buffer with 3% BSA at room temperature for 1–2 hours, washed with western wash buffer and incubated with secondary HRP-coupled antibody diluted in western wash buffer with 1.5% BSA, and washed extensively. Polypeptides were detected with the ECL chemiluminescence according to the manufacturers instructions (Amersham).

HeLa cells = experiment: Beta-gal ELISA apoptosis assay in transfected HeLa cells; type: cell-based, human; conditions: in the presence of Forskolin after 24 hours
Experimental: Because BAD Ser155 phosphorylation, like Ser136 phosphorylation, prevents BAD from binding to Bcl-XL (FIG. 1), it was possible that by analogy, Ser155 dephosphorylation promotes cell death. To test this idea, HeLa cells were co-transfected with BAD or various BAD serine mutants and a β-gal reporter plasmid. Twenty-four hours post-transfection, cell viability was analyzed by β-gal ELISA.
To test this idea, HeLa cells were again co-transfected with BAD or various BAD serine mutants and a β-gal reporter plasmid. Forskolin was then added to half of the cultures while the other half was left untreated. Beta-gal ELISAs were performed 24 hours post transfection. […] Thus, phosphorylation of Ser155 rescues cells from BAD-induced apoptosis, while substitution of Ser155 with a nonphosphorylatable residue results in increased cell death and the failure of cells to be protected from induced PKA activity.
Beta-gal ELISA assays were performed using the β-gal ELISA system from Boehringer Mannheim, according to manufacture's instructions. Cells were transfected with BAD (or BAD mutant) and β-gal in a ratio of 5:1. The transfected cells were trypsinized and distributed into 96-well tissue culture plates. Twenty-four hours after transfection, cell extracts were obtained by lysing the cells in lysis buffer. Cell extracts (200 μl) were then added to anti-β-gal-coated microtiter plates (MTP). The MTPs were foil-covered and incubated for one hour at 37° C. Solutions were then decanted and the MTPs were washed, followed by the addition of 200 μl of anti-β-gal-DIG working solution, and incubation for an additional hour as described above. Solutions were again decanted, the MTPs washed and 200 μl of DIG-POD working solution were added. The MTPs were incubated for another hour at 37° C., the solution decanted, and the wells washed. 200 μl of substrate with enhancer were added to each well and incubated at room temperature until color development. The β-gal activity was measured by the absorbance of the sample at […]. Data were based on triplicate wells with standard deviations calculated.

B1: wild-type BAD: shorter murine BAD of SEQ ID NO:3 (162 aa), used untagged, HA-tagged or GST-tagged (protein, listed as Mus musculus)
chain: MFQIPEFEPSEQEDASATDRGLGPSLTEDQPGPYLAPGLLGSNIHQQGRAATNSHHGGAGAMETRSRHSSYPAGTEEDEGMEEELSPFRGRSRSAPPNLWAAQRYGRELRRMSDEFEGSFKGLPRPKSAGTATQMRQSAGWTRIIQSWWDRNLGKGGSTPSQ
modifications: optional HA or GST tag
For B1, the “gel-mobility shift induced by phosphorylation by PKA” value [1] was “induced a gel-mobility shift”, the “binding to GST-Bcl-XL after phosphorylation by PKA” value (GST-Bcl-XL) was “blocked the ability of BAD to bind to Bcl-XL” and the “band-shift (phosphorylation) of expressed BAD construct in response to L-epinephrine” value [2] was “significant band-shift”. For the same molecule, the “more cells surviving transient expression than with the BAD S155A mutant” value (HeLa cells) was “Approximately 50%”.
